Test results taken from paper PMC9933633.

Biological target: SARS-CoV-2 Spike RBD (SARS-CoV-2, UniProt P0DTC2 319-541)
Experiment: electrochemical aptasensor

B1: Spike RBD aptamer (51-base, Song et al. 2020) (structured_DNA)
DNA: CAGCACCGACCTTGTGCTTTGGGAGTGCTGGTCCAAGGGCGTTAATGGACA
modifications: 5' C6-NH2
B1: binds.
